B1: REGN10987-based FabH3 (GS-G4 linker) (other)
VH: QVQLVESGGGVVQPGRSLRLSCAASGFTFSNYAMYWVRQAPGKGLEWVAVISYDGSNKYYADSVKGRFTISRDNSKNTLYLQMNSLRTEDTAVYYCASGSDYGDYLLVYWGQGTLVTVSS
VL: QSALTQPASVSGSPGQSITISCTGTSSDVGGYNYVSWYQQHPGKAPKLMIYDVSKRPSGVSNRFSGSKSGNTASLTISGLQSEDEADYYCNSLTSISTWVFGGGTKLTVL
notes: VH domain of REGN10987, as the VH of the heavy chain of m1; flexible glycine-serine linker, printed only as the formula 'GS-G4' (G: glycine, S: serine); spelled out from that formula; IgG1 heavy chain constant 3 (CH3) domain; VL domain of REGN10987, as the VL of the light chain of m1; E356 is 239 and D399 is 282 in P01857; also called REGN10987 FabH3; FabH3 format; copies: 1 + 1
B2: REGN10987 wild type Fab (Fab, V domains shown)
VH: QVQLVESGGGVVQPGRSLRLSCAASGFTFSNYAMYWVRQAPGKGLEWVAVISYDGSNKYYADSVKGRFTISRDNSKNTLYLQMNSLRTEDTAVYYCASGSDYGDYLLVYWGQGTLVTVSS
VL: QSALTQPASVSGSPGQSITISCTGTSSDVGGYNYVSWYQQHPGKAPKLMIYDVSKRPSGVSNRFSGSKSGNTASLTISGLQSEDEADYYCNSLTSISTWVFGGGTKLTVL
notes: Fab heavy chain (VH-CH1) of REGN10987; Fab light chain (VL-CL, lambda) of REGN10987; Heavy and light chain are covalently linked (one mass of 47,892 Da by ESI-MS); also called REGN10987 Fab; REGN10987-Fab

Biological target: T1, mutated-truncated DsbC (mtDsbC) tagged SARS-CoV-2 Receptor Binding Domain (RBD) (Severe acute respiratory syndrome …, UniProt P0DTC2, biotin (biotinylated, site not stated))
T1 construct: also called mtDsbC-SARS-CoV-2 wild type; SARS-CoV-2 RBD
Test: BLI; biotinylated antigen (5 µg/mL) immobilised on Streptavidin biosensors; five concentrations of Fab or FabH3 (3-243 nM); Octet RED384, 30 °C, 1000 rpm, 1X PBS Kinetics Buffer; global fit, 1:1 interaction model
Conditions: both partners purified

Binder | Kd
B1 | 20 ± 2.6 nM
B2 | 43 ± 4.4 nM

— paper PMC10469194 (Scientific Reports, 2023)
